In PMC10679500, “Posttranslational modification and heme cavity architecture of human eosinophil peroxidase—insights from first crystal structure and biochemical characterization” (The Journal of Biological Chemistry, 2023):

Molecular target: T1, eosinophil peroxidase heavy chain (human, UniProt P11678 251-715, Glu380 ester-linked to the heme cofactor (hydroxymethyl group on pyrrole ring A); N-glycans at Asn327 and Asn363)
T1 construct: human eosinophil peroxidase (EPO), C-terminal heavy chain of the mature enzyme; G250/V251-T715; N-terminus heterogeneous (G250 or V251); first resolved residue in the crystal is Val251; One of the two polypeptides of mature leukocyte EPO; part of the sample may begin at G250; A mixture of glycoforms was crystallized; also called EPO H-chain; HC
T1 sequence (looked up): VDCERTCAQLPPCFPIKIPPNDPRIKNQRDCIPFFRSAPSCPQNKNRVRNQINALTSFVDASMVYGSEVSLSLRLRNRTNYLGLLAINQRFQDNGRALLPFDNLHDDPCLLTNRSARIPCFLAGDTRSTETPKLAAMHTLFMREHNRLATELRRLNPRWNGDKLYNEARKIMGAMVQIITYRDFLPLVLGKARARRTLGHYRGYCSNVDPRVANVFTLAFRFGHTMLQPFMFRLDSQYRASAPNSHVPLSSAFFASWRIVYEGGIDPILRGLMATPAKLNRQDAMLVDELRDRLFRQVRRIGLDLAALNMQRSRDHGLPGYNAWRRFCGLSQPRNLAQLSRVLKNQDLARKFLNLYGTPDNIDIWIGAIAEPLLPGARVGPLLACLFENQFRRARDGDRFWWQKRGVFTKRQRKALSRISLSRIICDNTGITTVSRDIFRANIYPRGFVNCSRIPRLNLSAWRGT
Test: crystal structure; mixture of EPO glycoforms from human leukocytes, 10 mg/ml in 5 mM phosphate pH 7.0; crystallized in 0.2 M trisodium citrate pH 4.1, 20% (w/v) PEG, vapor diffusion, 22 °C; 1.6 Å; one monomer per asymmetric unit
Settings: both partners purified

B1: eosinophil peroxidase light chain (domain or fragment)
chain: not shown
modifications: Asp232 ester-linked to the heme cofactor (hydroxymethyl group on pyrrole ring C)
notes: human eosinophil peroxidase (EPO), N-terminal light chain of the mature enzyme after removal of signal peptide, propeptide (18-139) and the peptide V/AFTA/G; R140-R244/V245; C-terminus heterogeneous by MS (77.2% arginine, 23.8% valine as terminal residue); last resolved residue in the crystal is Arg244; One of the two polypeptides of mature leukocyte EPO; a minor part of the sample ends at V245; …
Question: Does B1 bind?
Answer: binds
